Patent US20220112276A1 (Janssen / Centocor, published 2022)

The binders below were run against T1, recombinant human pIgR (hpIgR) (human, UniProt P01833 19-638, limits assumed) (assay: ELISA, periplasmic VHH, BSA subtracted).
T1 construct: probably the ECD
Method in brief: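 His-tagged VHH in periplasmic extracts (osmotic shock, non-suppressor E. coli) were tested by ELISA for binding to pIgR. Bound nanobody was detected with polyclonal anti-alpaca VHH antibody in the initial screen and anti-VHH antibody on retest. Signal on BSA, run in parallel, was subtracted from the pIgR signal.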

T1 sequence (P01833 19-638 limits assumed): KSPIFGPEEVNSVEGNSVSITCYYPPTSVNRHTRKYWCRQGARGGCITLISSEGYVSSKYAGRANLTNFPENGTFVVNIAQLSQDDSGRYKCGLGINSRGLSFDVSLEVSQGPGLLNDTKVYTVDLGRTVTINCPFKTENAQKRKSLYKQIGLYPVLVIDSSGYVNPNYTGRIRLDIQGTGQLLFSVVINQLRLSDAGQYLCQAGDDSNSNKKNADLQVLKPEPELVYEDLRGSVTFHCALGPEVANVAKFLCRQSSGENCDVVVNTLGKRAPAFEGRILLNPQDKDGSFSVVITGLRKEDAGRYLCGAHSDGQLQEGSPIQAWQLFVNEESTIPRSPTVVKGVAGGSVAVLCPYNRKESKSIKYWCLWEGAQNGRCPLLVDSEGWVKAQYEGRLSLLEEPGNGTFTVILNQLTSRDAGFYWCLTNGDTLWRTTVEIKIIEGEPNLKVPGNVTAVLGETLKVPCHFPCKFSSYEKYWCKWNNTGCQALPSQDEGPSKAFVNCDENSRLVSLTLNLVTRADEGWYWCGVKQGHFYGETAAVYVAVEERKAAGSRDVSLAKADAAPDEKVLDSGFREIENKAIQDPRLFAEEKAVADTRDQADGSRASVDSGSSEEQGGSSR

Binder	ELISA (OD)
01E04R3LS His-tagged VHH (VHH) VHH: EVQLVESGGGLVQAGDSLRLSCAASGRTFTTYVMGWFRQAPGKDREFVATITWSGSTNYKYYADPVKGRFTISRDNAKNTVYLQMNSLKPEDTAVYYCTSSTVVTDPRKLNEYAYWGQGTLVTVSS	2.13 OD
01E05R2 His-tagged VHH (VHH) VHH: QVQLVESGGGLVQAGGSLRLSCAASGRAFSSGRMGWFRQAPGKEREFVAAISWSGHTTYKYYADSVKGRFTISRENAKNTVSLQMNSLKPEDTAVYYCAARQSLVAGGDPRGQSEYDYWGQGTLVTVSS	2.1 OD
01E10R3 His-tagged VHH (VHH) VHH: QVQLVESGGGLVQSGGSLRLSCAASGRTFSDYAMGWFRQAPGKERELVAAITWNGGSTYYADSVKGRFTISRDNAKNTVDLQMNSLKPEDTAVYYCAADPLNSDSAGTYDYWGQGTLVTVSS	1.96 OD
01A07R3 His-tagged VHH (VHH) VHH: EVQLVESGGGLVQTGESLRLSCAASGRAFSDLRMAWFRQVPGKEREFVAAVEWRGSSRYYYSADSVKGRFTISRTSPKGETYLQMNGLKPEDTAVYYCAAVSPVVGDPRNSDTYNYWGQGTQVTVSS	1.68 OD
01F03R2LS His-tagged VHH (VHH) VHH: EVQLVESGGGLVQAGDSLRLSCAASGRTGSSGAMGWFRQGPGKEREFVAALMWRNTVTYKYYEDSVKGRFTISRDNAKNTAYLQMNSLKPEDTAVYYCAADPDTYGDPRNSGAYDYWGQGTLVTVSS	2.14 OD
01F04R2LS His-tagged VHH (VHH) VHH: EVQLVESGGGLVQTGGSLRLSCAASGRTFSSYAMGWFRQAPGKEPERDFVAALRWSNDRTYYKYYADSVKGRFTISRDNAKNTVYLQMNTLKPEDTAVYYCAGGNYFSDPRVDKEYNYWGQGTQVTVSS	2.09 OD
01F04R3LS His-tagged VHH (VHH) VHH: EVQLVESGGGLVQAGGSLRLSCAASGRTFSRYAMGWFRQAPGKEREFVAAIAWSGGAIYYADFVKGQFTISRDNAKNTVDLEMNRLKPEDTAVYYCGSTRDPRVGDKKFYDYWGQGTQVTVSS	1.98 OD
01F05R2LS His-tagged VHH (VHH) VHH: QVQLVESGGGLVQAGGSLRLSCAASGSIFAINGMGWYRQAPGKQRELVAVITRGGSTNYADSVKGRFTISRDNAKNTVSLQMNSLKPEDTAVYYCAATGVLAGWAAGDGMDYWGKGTLVTVSS	2.4 OD
01A07R3LS His-tagged VHH (VHH) VHH: QVQLVESGGGLVQAGDSLRLSCAASGRTFPTYAMGWFRQAPGKEREFVATIRWSGSTQYKYYADFVKGRFTISRDNAKNTVYLQMDSLKPEDTAVYYCAATTLLGDPRALNEYAYWGQGTQVTVSS	0.48 OD
01G09R3LS His-tagged VHH (VHH) VHH: EVQLVESGGGLVQAGDSLRLSCAASGRTFPTYAMGWFRQAPGKEREFVATIRWSGSTQYKYYADFVKGRFTISRDNAKNTVYLQMDSLKPEDTAVYYCAATTLLTDPRALNAYAYWGQGTQVTVSS	1.9 OD
01F09R3 His-tagged VHH (VHH) VHH: QVQLVESGGGLAQAGGSLTLSCAASGTAAGIDVMGWYRQTPGNSREFVARIFSNDVTHYADSVTGRFTLSRTQDKNTVSLQMNSLKPDDTGVYYCNARIWTGSTTVDYWGQGTQVTVSS	1.85 OD
01F12R2 His-tagged VHH (VHH) VHH: EVQLVESGGGLVQPGGSLRLSCAASGRTFSSYTMGWFRQAPGEEREFVSAISWSSDGTYYKYYTDTVKGRFTISRDNAETTVHLQMNSLKPEDTAVYYCAASSSGTYGDPRSEREYRYWGQGTLVTVSS	2.12 OD
01G03R3L His-tagged VHH (VHH) VHH: QVQLVESGGGSVQAGGSLRLSCAASGRTFSNYAMGWFRQAPGKEREFVAGISRSGGSTYSADSVKGRFTISRDNAKNTVYLQMNSLKPEDTAVYYCAADGLDYALGFRGDYWGQGTLVTVSS	0.74 OD
